1 protein from publication PMC3345047 (Molecular Microbiology, 2012) can be followed below.

A word on the stoichiometry N: it is the number of molecules, sites or subunits per partner or assembly.

The data set concerns the molecule itself. Put plainly: SEC.

B1: pro-PanD (uncleaved L-aspartate-alpha-decarboxylase) of Salmonella enterica (enzyme, S. enterica serovar Typhimurium LT2, UniProt P65662 1-126, looked up)
chain: MIRTMLQGKLHRVKVTQADLHYEGSCAIDQDFLDASGILENEAIDIWNVTNGKRFSTYAIAAERGSRIISVNGAAAHCAEVGDIVIIASFVTMSDEEARTWRPKVAYFEGDNEMKRTAKAIPVQVA
Turning to B1, the “stoichiometry N” value amounted to 4.
